Target: mouse PD-L1 (mouse) (UniProt Q9EP73)
Test: flow cytometry on DOdKO-mPD-L1/mCD80 cells pretreated with 10 µg/ml TKMG48

Sequence of soluble mouse PD-1 extracellular region (PD-1-EC) protein (Q02242 other isoform, or with tags, fused parts or gaps): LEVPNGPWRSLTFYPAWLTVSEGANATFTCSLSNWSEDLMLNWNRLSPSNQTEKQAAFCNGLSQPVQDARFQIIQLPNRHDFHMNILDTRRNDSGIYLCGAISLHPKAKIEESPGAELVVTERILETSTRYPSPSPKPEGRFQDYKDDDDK
Sequence of mouse PD-L1 (mouse) (Q9EP73 19-290 limits assumed): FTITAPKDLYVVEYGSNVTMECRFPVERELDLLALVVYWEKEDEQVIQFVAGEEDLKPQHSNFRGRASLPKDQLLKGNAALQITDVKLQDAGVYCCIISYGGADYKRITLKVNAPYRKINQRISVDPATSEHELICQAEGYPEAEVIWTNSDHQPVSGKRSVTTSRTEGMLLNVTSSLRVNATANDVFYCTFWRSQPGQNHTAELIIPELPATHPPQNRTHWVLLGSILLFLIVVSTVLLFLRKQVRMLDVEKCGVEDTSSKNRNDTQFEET

soluble mouse PD-1 extracellular region (PD-1-EC) protein (from UniProt Q02242 25-167) (receptor)
amount of binding (mean fluorescence intensity) relative to control IgG pretreatment: 10.1 times
